The data set concerns the target SARS-CoV-2 spike (S/S1) protein (SARS-CoV-2, UniProt P0DTC2 P0DTC2:14-685).

The values that follow come from patent publication US20230107004, “[…] ELECTROCHEMICAL BIOSENSOR” (THE GOVERNING COUNCIL OF THE UNIVERSITY OF TORONTO, published 2023).

B1: CoV2-RBD-4C aptamer-P2 hybridized to P1 (iMP) (mixed)
DNA 1: ATCCAGAGTGACGCAGCATTTCATCGGGTCCAAAAGGGGCTGCTCGGGATTGCGGATATGGACACGTTTTTCTTATTAGATACAATAGCTGGTA
DNA 2: TACCAGCTATTGTATCTAATAAGA
modifications: P1 strand 5'-thiol-MC6 on gold electrode, 3'-NH2 conjugated to ferrocene
Regarding B1, the binding result is reported as “binds”.
